Data published in PMC10628234.

Target: Coxiella burnetii Fic enzyme 2 (CbFic2), wild type, untagged (Coxiella burnetii) (UniProt Q83DB6)
Experiment: crystal structure

## Coxiella burnetii Fic enzyme 2 (CbFic2), wild type, untagged (from UniProt Q83DB6 1-378)
  stoichiometry N: 2
